Assay results from US20230285589A1, “LIPOSOME COMPLEX FOR CANCER TREATMENT, COMPRISING NOVEL CD47 BINDER AND POLYNUCLEOTIDE” (priority 2020, published 2023).

Experiments:
[1] = 5'-nucleotidase preferred substrate (Km), dTMP; assay type: biochemical; details: according to Table 4
[2] = molecular target: recombinant CD47 protein (Homo sapiens, UniProt Q08722); assay: SPR, CD47 conjugated to CM5 chip; details: 250 RU CD47, 1:1 binding model
Description: Specifically, the recombinant CD47 protein was conjugated to the surface of the CM5 chip by a target SPR reaction of 250 RU through an EDC-NHS reaction to be used, and for HBS-P, the sensogram obtained through a process of association for 3 minutes and dissociation for 10 minutes at a flow rate of 30 μL/minutes was analyzed with the BiaEvaluation software using a 1:1 binding model and global fitting.

Sequence of recombinant CD47 protein (Q08722 19-323): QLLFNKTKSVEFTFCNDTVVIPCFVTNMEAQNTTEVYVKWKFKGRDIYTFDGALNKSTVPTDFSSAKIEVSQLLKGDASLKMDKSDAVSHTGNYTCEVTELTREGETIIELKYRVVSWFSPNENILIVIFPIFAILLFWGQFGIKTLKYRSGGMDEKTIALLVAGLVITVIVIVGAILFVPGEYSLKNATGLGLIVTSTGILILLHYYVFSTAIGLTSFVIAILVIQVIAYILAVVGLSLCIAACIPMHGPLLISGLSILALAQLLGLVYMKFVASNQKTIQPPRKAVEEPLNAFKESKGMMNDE

Row | Molecule | affinity for dTMP, times lower compared to T001 [1] | ka [2] | kd [2]
1 | NT5M: Human mitochondrial 5′-deoxyribonucleotidase (SEQ ID NO: 32) (protein, NT5M) MGGRALRVLVDMDGVLADFEGGFLRKFRARFPDQPFIALEDRRGFWVSEQYGRLRPGLSEKAISIWESKNFFFELEPLPGAVEAVKEMASLQNTDVFICTSPIKMFKYCPYEKYAWVEKYFGPDFLEQIVLTRDKTVVSADLLIDDRPDITGAEPTPSWEHVLFTACHNQHLQLQPPRRRLHSWADDWKAILDSKRPC | 30 times | – | –
2 | SV4: CD47 binder of SEQ ID NO: 2; SV1 with lysines at positions 11 and 104 substituted with leucine (protein, CD47 binder SV4) MEEELQIIQPDLSVSVAAGESAILHCTITSLFPVGPIQWFRGAGPARVLIYNQRQGPFPRVTTVSETTKRENMDFSISISNITPADAGTYYCIKFRKGSPDTEFLSGAGTELSVRAKPS | – | 164000 M⁻¹ s⁻¹ | 0.000275 s⁻¹
